Test in all cases: cell-based or functional assay
Experiment [1] concerns the target subtilisin 309 variant L42LN (B. Lentus) (UniProt P29600).
In experiment [2] the target is subtilisin 309 variant S99SD+S99A+N155ND (B. Lentus) (UniProt P29600).
Experiment [3] concerns the target subtilisin 309 variant S99D+S101R+S103A+V104I+G160S+A194P+V199M+V205I+*216aD (B. Lentus) (UniProt P29600).
In experiment [4] the target is subtilisin 309 variant S99SD+S99A+N155NA (B. Lentus) (UniProt P29600).
For experiment [5], the target named is Savinase® (subtilisin 309, BLSAVI) (B. Lentus) (UniProt P29600).
Experiment [6] addresses subtilisin 309 variant S99D+S101R+S103A+V104I+G160S+A194P+V199M+V205I+*216aE (B. Lentus) (UniProt P29600).
Experiment [7] concerns the target subtilisin 309 variant L217LP+S99SD+S99A (B. Lentus) (UniProt P29600).
The target in experiment [8] is subtilisin 309 variant S99SD+S99A+N155NR (B. Lentus) (UniProt P29600).
Experiment [9] has as its target subtilisin 309 variant S99SD+S99A+S216SDP (B. Lentus) (UniProt P29600).

Values joined by “and” are separate entries in the source; they are usually repeats but may differ in a detail not shown here. Equal entries are not always repeated.

The values that follow come from EP2360247A1.

With “trypsin inhibitor type IV-0 (Sigma T-1886) (from UniProt P10184 69-517)”, the Residual Activity (%) was 69.2% in experiment [1]; 10.7% and 7.1% in experiment [2]; 24% in experiment [3]; 7.4% in experiment [4]; less than 5% in [5]; 25.4% in experiment [6]. Also, the figures for the Residual Activity (%) in experiment [7], in [8] and in experiment [9] were 97%, 6.5% and 35%, respectively.
